Here are results for 6 substances from patent US6384302.

Test in all cases: cell-based or functional assay
The target of assay [1] is bovine trypsin (bovine) (UniProt P00760).
Assay [2] deals with Helicoverpa zea (H. zea) midgut trypsin (Helicoverpa zea).
Assay [3] addresses trypsin (source not stated).

For the substance “Affinity purified P. macroloba trypsin inhibitor (PmTI)”, in assay [1], the IA = Inhibitory Activity in IUs (BAPNA hydrolysis) was found to be 4.96 IU and the SA = Specific Activity in IU/mg protein (IU/mg protein) came to 2.48. In assay [2], this substance returned an IA = Inhibitory Activity in IUs (BAPNA hydrolysis) of 7.46 IU and an SA = Specific Activity in IU/mg protein (IU/mg protein) of 3.73.
On to “Bowman-Birk trypsin inhibitor (soybean) (from UniProt P01055 40-110)”, for which the SA = Specific Activity in IU/mg protein (IU/mg protein) in assay [1] turned out to be 5.03; in assay [2] it was 2.1.
In assay [3], Crude P. macroloba seed extract returned an inhibition activity after heating at 70° C. for 5 minutes of 3.7 IU/mg TI and an inhibition activity before heating of 2.2 IU/mg TI. In assay [1], the IA = Inhibitory Activity in IUs (BAPNA hydrolysis) turned out to be 0.119 IU and the SA = Specific Activity in IU/mg protein (IU/mg protein) turned out to be 0.038. Further, in assay [2], the IA = Inhibitory Activity in IUs (BAPNA hydrolysis) was determined as 0.245 IU and the SA = Specific Activity in IU/mg protein (IU/mg protein) is 0.079.
Consider “Kunitz trypsin inhibitor (soybean) (from UniProt P01070 25-205)”, for which the SA = Specific Activity in IU/mg protein (IU/mg protein) in assay [1] came out at 1.02; in assay [2] it was 0.845.
“P. macroloba large trypsin inhibitor (PmLTI)”: in assay [1], the IA = Inhibitory Activity in IUs (BAPNA hydrolysis) was 5.57 IU and the SA = Specific Activity in IU/mg protein (IU/mg protein) came to 2.78. In assay [2], this substance registered an IA = Inhibitory Activity in IUs (BAPNA hydrolysis) of 7.86 IU and an SA = Specific Activity in IU/mg protein (IU/mg protein) of 3.93.
Take “P. macroloba small trypsin inhibitor (PmSTI)”: in assay [1], the IA = Inhibitory Activity in IUs (BAPNA hydrolysis) worked out at 30.6 IU and the SA = Specific Activity in IU/mg protein (IU/mg protein) amounted to 50.9. Besides, in assay [2], the IA = Inhibitory Activity in IUs (BAPNA hydrolysis) came to 8.54 IU and the SA = Specific Activity in IU/mg protein (IU/mg protein) is 14.2.
